Biological target: T1, GST-RPS14 (UniProt P62263 1-151)
T1 construct: ribosomal protein RPS14; also called recombinant GST-RPS14
Assay: pull-down; GST-RPS14 and His-hCINAP incubated in 1 ml NP-40 lysis buffer (50 mM Tris pH 8.0, 150 mM NaCl, 1% NP-40) for 2 h at 4 °C, then ATP or AMP-PNP at 1 mM with 5 mM MgCl2 for 1 h; GST beads 1 h; western blot
Conditions: both partners purified

B1: His-hCINAP (enzyme)
chain: MLLPNILLTGTPGVGKTTLGKELASKSGLKYINVGDLAREEQLYDGYDEEYDCPILDEDRVVDELDNQMREGGVIVDYHGCDFFPERWFHIVFVLRTDTNVLYERLETRGYNEKKLTDNIQCEIFQVLYEEATASYKEEIVHQLPSNKPEELENNVDQILKWIEQWIKDHNS
notes: also called His6-hCINAP
B1: binds.

From article PMC4974663, “The ATPase hCINAP regulates 18S rRNA processing and is essential for embryogenesis and tumour growth” (Nature Communications, 2016)
